Assays:
[1] = target: T1, Aβ42 fibrils (fibrillar Aβ42) (UniProt P05067 672-713); test: pull-down; Aβ42 fibril pull-down: conditioned media with 5 mM EDTA incubated with Aβ42 fibrils 1 h at room temperature, fibrils pelleted at 18,000 g, washed with PBS; Western blot with V5 antibody; conditions: one partner purified
T1 construct: amyloid‐β 1-42 (Aβ42), cut product of the amyloid precursor protein APP; Fibrillar assembly of the peptide; also called fAβ; Aβ fibrils; source: Pinotsi et al, 2016

[2] = target: T2, Aβ42 oligomers (soluble) (UniProt P05067 672-713); test: BLI; optimized assay: Protein A sensors loaded to near-saturation with soluble TREM‐Fc‐V5 proteins in PBS; ligand in serial dilution (five concentrations); dissociation in PBS; 1:1 interaction model; conditions: both partners purified
T2 construct: amyloid‐β 1-42 (Aβ42), cut product of the amyloid precursor protein APP; Oligomeric assembly; also called Aβ oligomers; oligomeric Aβ; source: oligomers prepared as described (Stine et al, 2003)

[3] = target: T3, Aβ42 monomers (UniProt P05067 672-713); test: ELISA; plates coated overnight at 4°C with purified soluble TREM‐Fc proteins in 100 mM NaCO3 pH 11, blocked (Block Ace), incubated with Aβ42 monomers, oligomers or fibrils 1 h at room temperature; Aβ detected with 4G8‐HRP, OD450; conditions: both partners purified
T3 construct: amyloid‐β 1-42 (Aβ42), cut product of the amyloid precursor protein APP; also called monomeric Aβ; source: monomers prepared as described (Stine et al, 2003)

| binding result [1] | binding result [2] | binding result [3] | Binder |
| --- | --- | --- | --- |
| binds | binds | binds | soluble mouse Trem2‐Fc (soluble ectodomain) (Fc fusion, UniProt Q99NH8 19-171, looked up, Trem2, mouse, soluble ectodomain; also called sTrem2‐Fc; sTrem2‐FC; source: HEK293T, transiently transfected; conditioned media; purified from conditioned media (anti-human IgG Fc agarose beads)) LNTTVLQGMAGQSLRVSCTYDALKHWGRRKAWCRQLGEEGPCQRVVSTHGVWLLAFLKKRNGSTVIADDTLAGTVTITLKNLQAGDAGLYQCQSLRGREAEVLQKVLVEVLEDPLDDQDAGDLWVPEESSSFEGAQVEHSTSRNQETSFPPTS |
| – | binds | – | soluble TREML1‐Fc (human, soluble ectodomain) (Fc fusion, UniProt Q86YW5 16-162, looked up, TREML1, human, soluble ectodomain; also called sTREML1‐Fc; source: HEK293T, transiently transfected; conditioned media; purified from conditioned media (anti-human IgG Fc agarose beads)) QGIVGSLPEVLQAPVGSSILVQCHYRLQDVKAQKVWCRFLPEGCQPLVSSAVDRRAPAGRRTFLTDLGGGLLQVEMVTLQEEDAGEYGCMVDGARGPQILHRVSLNILPPEEEEETHKIGSLAENAFSDPAGSANPLEPSQDEKSIP |
| – | binds | – | soluble mouse Treml1‐Fc (soluble ectodomain) (Fc fusion, UniProt Q8K558 21-175, looked up, Treml1, mouse, soluble ectodomain; also called sTreml1‐Fc; source: HEK293T, transfected, purified from conditioned media (anti-human IgG Fc agarose beads)) DSHPEVLQAPVGSSILVQCHYRLQDVRALKVWCQFLQEGCHPLVTSAVDRRAPGNGRIFLTDLGGGLLQVEMVTLQEEDTGEYGCVVEGAAGPQTLHRVSLLVLPPVPGPREGEEAEDEKETYRIGTGSLLEDPSLDPSASAGPHEFRRRENSIP |
